We go through two molecules from patent US20190359687A1 (Bayer, published 2019).

In test [1] the target is T1, Cynomolgus monkey glycophorin A on Cynomolgus monkey red blood cells (Cynomolgus monkey).
T1 construct: whole, on cells; also called Cyno GPA; Cyno RBC
Kind of test: partition to Cyno RBC, human HemA plasma, 60 min.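 Further: FVIII fusion spiked at 1 IU/mL into RBC suspension at whole-blood density.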

Test [2] concerns the target T2, human glycophorin A on human red blood cells (human, UniProt P02724 20-150).
T2 construct: whole, on cells; also called human GPA; huGPA
T2 sequence (looked up): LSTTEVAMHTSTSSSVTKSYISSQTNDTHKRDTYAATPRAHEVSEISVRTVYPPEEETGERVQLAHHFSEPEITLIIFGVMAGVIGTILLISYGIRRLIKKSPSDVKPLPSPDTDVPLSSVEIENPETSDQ
Kind of test: partition to human RBC, human HemA plasma, 5 min.

The target in test [3] is T1, Cynomolgus monkey glycophorin A on …. Kind of test: partition to Cyno RBC, human HemA plasma, 15 min.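 Further: FVIII fusion spiked at 1 IU/mL into RBC suspension at whole-blood density.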
Test [4] shares this target. Kind of test: partition to Cyno RBC, human HemA plasma, 5 min.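 Further: FVIII fusion spiked at 1 IU/mL into RBC suspension at whole-blood density.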
The target is the same in test [5]. Kind of test: partition to Cyno RBC, human HemA plasma, 1 min.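 Further: FVIII fusion spiked at 1 IU/mL into RBC suspension at whole-blood density.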
Experimental: (§1) To evaluate partition to cynomolgus monkey or human red blood cells, whole blood was draw from Cynomolgus monkey or normal human volunteers in to anticoagulant with 4% sodium citrate (Sigma, St Louis, Mo.). The red blood cells were purified by layering the whole blood on to ficoll followed by low speed centrifugation. The supernatant containing plasma, platelets and white blood cells was discarded and the red blood cell pellet was resuspended in 10 pellet volumes of PBS (50 mM Phosphate buffer, pH7.4, 150 mM NaCl). The red blood cells were then pelleted by slow speed centrifugation and the red blood cells re-suspended in 10 volumes of PBS. This washing step was repeated 4 more times and the red blood cells finally resuspended in a volume of plasma from Hemophilia patients with less than 1% of normal levels of FVIII (GeorgeKing Bio-Medical, Overland Park, Kans.) to generate a total volume equal to the initial blood volume such that the RBC density was equal to that of normal whole blood. BDD and RBC targeted FVIII molecules were then spiked into RBC suspension in HemA plasma at 1 IU/mL, and incubated at room temperature for 2-3 hours with gentle rotation. […] An additional control was performed in which BDD or RBC targeted FVIII molecules were added at 11U/ml into the same human hemophilia A plasma and incubated for 5 minutes and 180 mins. These samples were used to determine the input FVIII activity in the presence of plasma which was used to calculate the percentage of the molecule that was bound to RBC. All plasma samples were then assayed together for FVIII activity using the Coatest SP assay (DiaPharma, Columbus, Ohio). The assay was performed following the manufacturer's instructions in a 96-well plate format. […] The plate was incubated at 37° C. for 10 minutes with shaking between each reagent addition.
Test [6] addresses T2, human glycophorin A on human red blood …. Kind of test: partition to human RBC, human HemA plasma, 60 min.
Experimental: (§2) The supernatant containing plasma, platelets and white blood cells was discarded and the red blood cell pellet was resuspended in 10 pellet volumes of PBS (50 mM Phosphate buffer, pH7.4, 150 mM NaCl). The red blood cells were then pelleted by slow speed centrifugation and the red blood cells re-suspended in 10 volumes of PBS. This washing step was repeated 4 more times and the red blood cells finally resuspended in a volume of plasma from Hemophilia patients with less than 1% of normal levels of FVIII (GeorgeKing Bio-Medical, Overland Park, Kans.) to generate a total volume equal to the initial blood volume such that the RBC density was equal to that of normal whole blood. BDD and RBC targeted FVIII molecules were then spiked into RBC suspension in HemA plasma at 1 IU/mL, and incubated at room temperature for 2-3 hours with gentle rotation. […] An additional control was performed in which BDD or RBC targeted FVIII molecules were added at 11U/ml into the same human hemophilia A plasma and incubated for 5 minutes and 180 mins. These samples were used to determine the input FVIII activity in the presence of plasma which was used to calculate the percentage of the molecule that was bound to RBC. All plasma samples were then assayed together for FVIII activity using the Coatest SP assay (DiaPharma, Columbus, Ohio). The assay was performed following the manufacturer's instructions in a 96-well plate format. […] The plate was incubated at 37° C. for 10 minutes with shaking between each reagent addition. […] The amount of FVIII activity in the plasma reflects the amount of unbound FVIII. The FVIII activity of the same molecule spiked in to Hemophilia A plasma alone (no RBC) and incubated for 5 minutes was normalized to 100%.
Test [7] shares this target. Kind of test: partition to human RBC, human HemA plasma, 15 min.
Experimental: as §2
The target is the same in test [8]. Kind of test: partition to human RBC, human HemA plasma, 120 min.
Experimental: as §2
Test [9] concerns the target T1, Cynomolgus monkey glycophorin A on …. Kind of test: partition to Cyno RBC, human HemA plasma, 120 min.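 Further: FVIII fusion spiked at 1 IU/mL into RBC suspension at whole-blood density.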
Test [10] has as its target T2, human glycophorin A on human red blood …. Kind of test: partition to human RBC, human HemA plasma, 1 min.
Test [11] deals with T1, Cynomolgus monkey glycophorin A on …. Kind of test: partition to Cyno RBC, human HemA plasma, 30 min.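 Further: FVIII fusion spiked at 1 IU/mL into RBC suspension at whole-blood density.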
Experimental: as §1
For test [12], the target named is T2, human glycophorin A on human red blood …. Kind of test: partition to human RBC, human HemA plasma, 30 min.
Test [13] has the same target. Kind of test: partition to human RBC, human HemA plasma, 120 min. The source holds these as a separate data set.
Experimental: as §2

B1: TPP-9900 FVIII-scFv fusion protein (other)
chain: DIQLTQSPSFLSASVGDRVTITCRASSSVRYIYWFQQKPGKAPKLLIYATSFRQSGVPSRFSGSGSGTEYTLTISSLQPEDFATYYCHQRNSFPYTFGQGTKLEIKGGGGSGGGGSGGGGSGGGGSEVQLVQSGAEVKKPGASVKVSCKASGYTFTTYAIHWVRQAPGQGLEWMGYINPSSGYTRYNPKFKGRVTMTRDKSTSTAYMELRSLRSDDTAVYYCWTGTRDYWGQGTTVTVSSGGGSGGGGSGLVPRGSGGGSGGGGSGATRRYYLGAVELSWDYMQSDLGELPVDARFPPRVPKSFPFNTSVVYKKTLFVEFTDHLFNIAKPRPPWMGLLGPTIQAEVYDTVVITLKNMASHPVSLHAVGVSYWKASEGAEYDDQTSQREKEDDKVFPGGSHTYVWQVLKENGPMASDPLCLTYSYLSHVDLVKDLNSGLIGALLVCREGSLAKEKTQTLHKFILLFAVFDEGKSWHSETKNSLMQDRDAASARAWPKMHTVNGYVNRSLPGLIGCHRKSVYWHVIGMGTTPEVHSIFLEGHTFLVRNHRQASLEISPITFLTAQTLLMDLGQFLLFCHISSHQHDGMEAYVKVDSCPEEPQLRMKNNEEAEDYDDDLTDSEMDVVRFDDDNSPSFIQIRSVAKKHPKTWVHYIAAEEEDWDYAPLVLAPDDRSYKSQYLNNGPQRIGRKYKKVRFMAYTDETFKTREAIQHESGILGPLLYGEVGDTLLIIFKNQASRPYNIYPHGITDVRPLYSRRLPKGVKHLKDFPILPGEIFKYKWTVTVEDGPTKSDPRCLTRYYSSFVNMERDLASGLIGPLLICYKESVDQRGNQIMSDKRNVILFSVFDENRSWYLTENIQRFLPNPAGVQLEDPEFQASNIMHSINGYVFDSLQLSVCLHEVAYWYILSIGAQTDFLSVFFSGYTFKHKMVYEDTLTLFPFSGETVFMSMENPGLWILGCHNSDFRNRGMTALLKVSSCDKNTGDYYEDSYEDISAYLLSKNNAIEPRSFSQNDENQSPRSFQKKTRHYFIAAVERLWDYGMSSSPHVLRNRAQSGSVPQFKKVVFQEFTDGSFTQPLYRGELNEHLGLLGPYIRAEVEDNIMVTFRNQASRPYSFYSSLISYEEDQRQGAEPRKNFVKPNETKTYFWKVQHHMAPTKDEFDCKAWAYFSDVDLEKDVHSGLIGPLLVCHTNTLNPAHGRQVTVQEFALFFTIFDETKSWYFTENMERNCRAPCNIQMEDPTFKENYRFHAINGYIMDTLPGLVMAQDQRIRWYLLSMGSNENIHSIHFSGHVFTVRKKEEYKMALYNLYPGVFETVEMLPSKAGIWRVECLIGEHLHAGMSTLFLVYSNKCQTPLGMASGHIRDFQITASGQYGQWAPKLARLHYSGSINAWSTKEPFSWIKVDLLAPMIIHGIKTQGARQKFSSLYISQFIIMYSLDGKKWQTYRGNSTGTLMVFFGNVDSSGIKHNIFNPPIIARYIRLHPTHYSIRSTLRMELMGCDLNSCSMPLGMESKAISDAQITASSYFTNMFATWSPSKARLHLQGRSNAWRPQVNNPKEWLQVDFQKTMKVTGVTTQGVKSLLTSMYVKEFLISSSQDGHQWTLFFQNGKVKVFQGNQDSFTPVVNSLDPPLLTRYLRIHPQSWVHQIALRMEVLGCEAQDLYGGGSGGGGSGLVPRGSGGGSGGGGSGDIQLTQSPSFLSASVGDRVTITCRASSSVRYIYWFQQKPGKAPKLLIYATSFRQSGVPSRFSGSGSGTEYTLTISSLQPEDFATYYCHQRNSFPYTFGQGTKLEIKGGGGSGGGGSGGGGSGGGGSEVQLVQSGAEVKKPGASVKVSCKASGYTFTTYAIHWVRQAPGQGLEWMGYINPSSGYTRYNPKFKGRVTMTRDKSTSTAYMELRSLRSDDTAVYYCWTGTRDYWGQGTTVTVSS
B1: the “% bound to Cyno RBC” value was determined as 52.9% in [1]; 40.6% in test [3]; 38.2% in test [4]; 30.9% in test [5]; 55.1% in test [9]; 43.2% in test [11]. The “percentage bound to human RBC” value was 34.4% in [2]; 66.9% in [6]; 52% in test [7]; 71.8% in test [8]; 19.3% in test [10]; 57.7% in test [12]. Also, the “percentage bound to human RBC” value in test [13] turned out to be 71.8%.

B2: TPP-9424 FVIII-scFv fusion protein (other)
chain: DIQLTQSPSFLSASVGDRVTITCRASSSVRYIYWFQQKPGKAPKLLIYATSFRQSGVPSRFSGSGSGTEYTLTISSLQPEDFATYYCHQRNSFPYTFGQGTKLEIKGGGGSGGGGSGGGGSGGGGSEVQLVQSGAEVKKPGASVKVSCKASGYTFTTYAIHWVRQAPGQGLEWMGYINPSSGYTRYNPKFKGRVTMTRDKSTSTAYMELRSLRSDDTAVYYCWTGTRDYWGQGTTVTVSSGGGSGGGGSGLVPRGSGGGSGGGGSGATRRYYLGAVELSWDYMQSDLGELPVDARFPPRVPKSFPFNTSVVYKKTLFVEFTDHLFNIAKPRPPWMGLLGPTIQAEVYDTVVITLKNMASHPVSLHAVGVSYWKASEGAEYDDQTSQREKEDDKVFPGGSHTYVWQVLKENGPMASDPLCLTYSYLSHVDLVKDLNSGLIGALLVCREGSLAKEKTQTLHKFILLFAVFDEGKSWHSETKNSLMQDRDAASARAWPKMHTVNGYVNRSLPGLIGCHRKSVYWHVIGMGTTPEVHSIFLEGHTFLVRNHRQASLEISPITFLTAQTLLMDLGQFLLFCHISSHQHDGMEAYVKVDSCPEEPQLRMKNNEEAEDYDDDLTDSEMDVVRFDDDNSPSFIQIRSVAKKHPKTWVHYIAAEEEDWDYAPLVLAPDDRSYKSQYLNNGPQRIGRKYKKVRFMAYTDETFKTREAIQHESGILGPLLYGEVGDTLLIIFKNQASRPYNIYPHGITDVRPLYSRRLPKGVKHLKDFPILPGEIFKYKWTVTVEDGPTKSDPRCLTRYYSSFVNMERDLASGLIGPLLICYKESVDQRGNQIMSDKRNVILFSVFDENRSWYLTENIQRFLPNPAGVQLEDPEFQASNIMHSINGYVFDSLQLSVCLHEVAYWYILSIGAQTDFLSVFFSGYTFKHKMVYEDTLTLFPFSGETVFMSMENPGLWILGCHNSDFRNRGMTALLKVSSCDKNTGDYYEDSYEDISAYLLSKNNAIEPRSFSQNDENQSPRSFQKKTRHYFIAAVERLWDYGMSSSPHVLRNRAQSGSVPQFKKVVFQEFTDGSFTQPLYRGELNEHLGLLGPYIRAEVEDNIMVTFRNQASRPYSFYSSLISYEEDQRQGAEPRKNFVKPNETKTYFWKVQHHMAPTKDEFDCKAWAYFSDVDLEKDVHSGLIGPLLVCHTNTLNPAHGRQVTVQEFALFFTIFDETKSWYFTENMERNCRAPCNIQMEDPTFKENYRFHAINGYIMDTLPGLVMAQDQRIRWYLLSMGSNENIHSIHFSGHVFTVRKKEEYKMALYNLYPGVFETVEMLPSKAGIWRVECLIGEHLHAGMSTLFLVYSNKCQTPLGMASGHIRDFQITASGQYGQWAPKLARLHYSGSINAWSTKEPFSWIKVDLLAPMIIHGIKTQGARQKFSSLYISQFIIMYSLDGKKWQTYRGNSTGTLMVFFGNVDSSGIKHNIFNPPIIARYIRLHPTHYSIRSTLRMELMGCDLNSCSMPLGMESKAISDAQITASSYFTNMFATWSPSKARLHLQGRSNAWRPQVNNPKEWLQVDFQKTMKVTGVTTQGVKSLLTSMYVKEFLISSSQDGHQWTLFFQNGKVKVFQGNQDSFTPVVNSLDPPLLTRYLRIHPQSWVHQIALRMEVLGCEAQDLY
notes: also called PPB 7888
Consider B2, for which the “% bound to Cyno RBC” value in test [1] turned out to be 89%; in [3], 87.2%; in test [4], 83%; in test [5] it was 62.9%; in test [9], 89.1%; in [11], 87.8%. For the same molecule, the “percentage bound to human RBC” value is 90.5% in test [2]; 95.2% in [6]; 94.4% in test [7]; 95.6% in test [8]; 76.5% in test [10]; 94.5% in test [12]. Also, the “percentage bound to human RBC” value in test [13] came out at 95.6%.
